In article PMC6289460:

System: ArdK (intact) (Escherichia coli A56-1S (plasmid pA56-1S))
Experiment: BLI
Conditions: EMSA: 20 mM Tris pH 7.5, 100 mM KCl, 2 mM DTT, 10 mM EDTA, 50 mg/L poly(dI-dC), 20 C, 20 min, 3 fmol probe, 30 pmol protein; BLI: 1x kinetics buffer (Pall …)

107 bp probe upstream of blaIMP-6
Kd: 29.3 nM
